Reference: paper PMC8025885, “Cryo-EM of kinesin-binding protein: challenges and opportunities from protein-surface interactions” (Acta Crystallographica. Section D, Structural Biology, 2021)

B1: cysteine-light human KIF15 motor domain and neck linker construct (domain or fragment, UniProt Q9NS87 1-375, looked up)
chain: MAPGSKTELRSVTNGQSNQPSNEGDAIKVFVRIRPPAERSGSADGEQNLSLSVLSSTSLRLHSNPEPKTFTFDHVADVDTTQESVFATVAKSIVESCMSGYNGTIFAYGQTGSGKTFTMMGPSESDNFSHNLRGVIPRSFEYLFSLIDREKEKAGAGKSFLSKCSFIEIYNEQIYDLLDSASAGLYLREHIKKGVFVVGAVEQVVTSAAEAYQVLSGGWRNRRVASTSMNRESSRSHAVFTITIESMEKCNEIVNIRTSLLNLVDLAGSERQKDTHAEGMRLKEAGNINRSLSSLGQVITALVDVGNGKQRHVSYRDSKLTFLLRDSLGGNAKTAIIANVHPGSRSFGETLSTLNFAQRAKLIKNKAVVNEDTQC
notes: kinesin-12 KIF15, human, motor domain and neck linker, residues 1-375, six of eight cysteines mutated to serine and two cysteines introduced; also called KIF15_MD6S; source: pET-21a vector, expressed and purified as described previously (Rosenfeld et al., 2005); not shown: His6, C-terminal, kept
B2: human KIF1A motor domain and neck linker construct (domain or fragment, UniProt Q12756 1-362, looked up)
chain: MAGASVKVAVRVRPFNSREMSRDSKCIIQMSGSTTTIVNPKQPKETPKSFSFDYSYWSHTSPEDINYASQKQVYRDIGEEMLQHAFEGYNVCIFAYGQTGAGKSYTMMGKQEKDQQGIIPQLCEDLFSRINDTTNDNMSYSVEVSYMEIYCERVRDLLNPKNKGNLRVREHPLLGPYVEDLSKLAVTSYNDIQDLMDSGNKARTVAATNMNETSSRSHAVFNIIFTQKRHDAETNITTEKVSKISLVDLAGSERADSTGAKGTRLKEGANINKSLTTLGKVISALAEMDSGPNKNKKKKKTDFIPYRDSVLTWLLRENLGGNSRTAMVAALSPADINYDETLSTLRYADRAKQIRCNAVINE
notes: kinesin-3 KIF1A, human, motor domain and neck linker, residues 1-362; The HaloTag is TEV protease-cleavable; the printed size of the motor domain (about 40 kDa); source: E. coli BL21-Gold (DE3), purified (IMAC, SEC); not shown: His6, C-terminal, kept

How the values were obtained:
kinesin-binding protein [1] = molecular target: T1, kinesin-binding protein (human, UniProt Q96EK5 1-621); assay: cryo-EM structure; rigid KBP-full–KIF15_MD6S subset of particles from GO-coated holey gold grids; 6.9 Å reconstruction; details: both partners purified
T1 construct: The 6xHis tag is thrombin-cleavable; also called KBP; KBP-full; source: E. coli Rosetta2, purified (IMAC, SEC)
T1 sequence (looked up): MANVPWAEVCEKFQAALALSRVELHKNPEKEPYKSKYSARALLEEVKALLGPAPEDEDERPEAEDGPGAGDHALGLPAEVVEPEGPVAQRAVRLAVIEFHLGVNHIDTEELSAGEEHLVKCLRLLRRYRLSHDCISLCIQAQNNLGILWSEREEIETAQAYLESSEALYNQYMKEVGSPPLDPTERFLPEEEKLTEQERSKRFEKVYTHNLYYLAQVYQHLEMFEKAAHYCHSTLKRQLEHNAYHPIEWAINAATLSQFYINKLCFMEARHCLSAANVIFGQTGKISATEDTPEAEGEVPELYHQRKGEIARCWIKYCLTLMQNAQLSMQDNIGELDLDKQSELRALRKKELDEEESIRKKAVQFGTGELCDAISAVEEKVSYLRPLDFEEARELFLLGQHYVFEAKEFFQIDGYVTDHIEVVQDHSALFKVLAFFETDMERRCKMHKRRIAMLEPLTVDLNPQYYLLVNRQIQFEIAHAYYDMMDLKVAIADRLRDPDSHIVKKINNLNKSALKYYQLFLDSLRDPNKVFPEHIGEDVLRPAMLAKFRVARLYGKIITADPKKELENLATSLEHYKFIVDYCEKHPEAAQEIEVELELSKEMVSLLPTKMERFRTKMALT

kinesin-binding protein [2] = molecular target: T1, kinesin-binding protein; assay: pull-down; complex purified via IMAC using the 6xHis tag on the kinesin construct after incubation with a tenfold excess of KBP; SDS-PAGE of the purified complex; details: both partners purified

Row | Binder | binding result (kinesin-binding protein [1]) | binding result (kinesin-binding protein [2])
1 | B1 | binds | 
2 | B2 |  | binds
